The target of the data set is human alpha-thrombin (Homo sapiens, UniProt P00734;P00734 328-363;364-622). Description: SEC mobility shift.

B1: apt15-rssp (tba15-rssp) (structured_DNA)
DNA: TTTTTTGGTTGGTGTGGTTGG
modifications: 5'-C6-NH2, DBCO; conjugated by azide-DBCO cycloaddition to spider silk protein eADF4(C16)
For B1, the binding result is on record as “binds”.

B2: apt29-rssp (tba29-rssp) (structured_DNA)
DNA: TTTTTTAGTCCGTGGTAGGGCAGGTTGGGGTGACT
modifications: 5'-C6-NH2, DBCO; conjugated by azide-DBCO cycloaddition to spider silk protein eADF4(C16)
Regarding B2, the binding result is “binds”.

For the origin of these results see article PMC7096766.
